Source: the supplement of paper PMC7877785
± gives the uncertainty stated by the source.

Assay: self-splicing fitness, log relative to wild type (ln ratio); higher = more splicing; Tetrahymena group I intron in knt gene, E. coli kanamycin selection, DiMSum; sequences stand for … in CUCUCU…GGAGGGAAAAGUUAUCAGGCAUGCACCUGGUAGCUAGUCUUUAAACCAAUAGAUUGCAUCGGUUUAAAAGGCAAGACCGUCAAAUUGCGGGAAAGGGGUCAACAGCCGUUCAGUACCAAGUCUCAGGGGAAACUUUGAGAUGGCCUUGCAAAGGGUAUGGUAAUAAGCUGACGGACAUGGUCCUAACCACGCAGCCAAGUCCUAAGUCAACAGAUCUUCUGUUGAUAUGGAUGCAGUUCACAGACUAAAUGUCGGUCGGGGAAGAUGUAUUCUUCUCAUAAGAUAUAGUCGGACCUCUCCUUAAUGGGAGCUAGCGGAUGAAGUGAUGCAACACUGGAGCCGCUGGGAACUAAUUUGUAUGCGAAAGUAUAUUGAUUAGUUUUGGAGUACUCGUGGUCG
Procedure, shortened: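 A randomised library covering all eight P1ex-region intron nucleotides was built with the intron in the knt kanamycin-resistance gene on pET-22b(+) and held in E. coli BL21(DE3). Cells were grown overnight at 37°C or 30°C on LB agar, with or without 25 μg/mL kanamycin, plus 100 μg/mL carbenicillin, 50 μM IPTG and 0.2% rhamnose, and pooled colonies were amplicon-sequenced on an Illumina HiSeq 2500. DiMSum fitness is the error-weighted combination of wild-type-normalised replicate fold changes, kanamycin versus none.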

| Sequence | self-splicing fitness (ln) (30 °C) | self-splicing fitness (ln) (37 °C) |
| --- | --- | --- |
| AAAUAGCAAUAUUACGCGGU | -2.71 ± 0.18 | -1.93 ± 0.2 |
| AAAUAGCAAUAUUACGCUUA | -1.47 ± 0.11 | -0.735 ± 0.13 |
| AAAUAGCAAUAUUACGGAAC | -4.71 ± 0.45 | -1.74 ± 0.36 |
| AAAUAGCAAUAUUACGGACC | -1.57 ± 0.25 | -1.26 ± 0.31 |
| AAAUAGCAAUAUUACGGAUA | -2.19 ± 0.2 | -1.1 ± 0.16 |
| AAAUAGCAAUAUUACGGGCG | -1.29 ± 0.08 | -0.403 ± 0.096 |
| AAAUAGCAAUAUUACGGUUU | -1.3 ± 0.059 | -0.657 ± 0.076 |
| AAAUAGCAAUAUUACGUCAC | -4.4 ± 0.42 | -2.53 ± 0.28 |
| AAAUAGCAAUAUUACGUCGC | -2.54 ± 0.15 | -2.54 ± 0.28 |
| AAAUAGCAAUAUUACGUGCG | -0.841 ± 0.13 | -0.149 ± 0.15 |
| AAAUAGCAAUAUUACGUGUG | -2.05 ± 0.09 | -1.55 ± 0.086 |
| AAAUAGCAAUAUUACGUUAU | -3.39 ± 0.18 | -2 ± 0.15 |
| AACAAGCAAUAUUACGAACU | -0.328 ± 0.052 | 0.146 ± 0.084 |
| AACAAGCAAUAUUACGAAUG | -3 ± 0.14 | -1.97 ± 0.12 |
| AACAAGCAAUAUUACGCGCA | -0.604 ± 0.066 | 0.104 ± 0.094 |
| AACAAGCAAUAUUACGCGGA | -2.07 ± 0.099 | -0.961 ± 0.078 |
| AACAAGCAAUAUUACGCUCG | -0.882 ± 0.11 | -0.282 ± 0.11 |
| AACAAGCAAUAUUACGCUCU | -0.638 ± 0.075 | 0.0475 ± 0.089 |
| AACAAGCAAUAUUACGCUGC | -3.38 ± 0.3 | -2.45 ± 0.28 |
| AACAAGCAAUAUUACGCUGU | -3.38 ± 0.12 | -2.32 ± 0.13 |
| AACAAGCAAUAUUACGGAAU | -2.64 ± 0.13 | -1.75 ± 0.14 |
| AACAAGCAAUAUUACGGAGC | -4.22 ± 0.3 | -3.65 ± 0.36 |
| AACAAGCAAUAUUACGGGAA | -1.57 ± 0.097 | -1.86 ± 0.13 |
| AACAAGCAAUAUUACGGGAU | -2.27 ± 0.098 | -1.01 ± 0.1 |

| Sequence | self-splicing fitness (ln) (30 °C) | self-splicing fitness (ln) (37 °C) |
| --- | --- | --- |
| AACAAGCAAUAUUACGGUAG | -3.81 ± 0.2 | -2.22 ± 0.13 |
| AACAAGCAAUAUUACGGUGC | -3.67 ± 0.16 | -2.04 ± 0.12 |
| AACAAGCAAUAUUACGUACA | -1.04 ± 0.095 | -0.329 ± 0.11 |
| AACAAGCAAUAUUACGUACU | -0.11 ± 0.05 | 0.496 ± 0.071 |
| AACAAGCAAUAUUACGUAUA | -2.4 ± 0.13 | -1.59 ± 0.12 |
| AACAAGCAAUAUUACGUAUC | -4.08 ± 0.15 | -2.01 ± 0.11 |
| AACAAGCAAUAUUACGUCUG | -1.22 ± 0.058 | -0.709 ± 0.076 |
| AACAAGCAAUAUUACGUGUC | -4.91 ± 0.21 | -2.96 ± 0.095 |
| AACAAGCAAUAUUACGUUCC | -3.85 ± 0.36 | -0.835 ± 0.2 |
| AACCAGCAAUAUUACGAAGA | -2.02 ± 0.081 | -0.639 ± 0.082 |
| AACCAGCAAUAUUACGCACU | 0.473 ± 0.074 | 0.0602 ± 0.078 |
| AACCAGCAAUAUUACGCCCU | 0.309 ± 0.089 | -0.381 ± 0.13 |
| AACCAGCAAUAUUACGCCGG | -3.39 ± 0.17 | -2.09 ± 0.17 |
| AACCAGCAAUAUUACGCGUU | -3.77 ± 0.15 | -1.56 ± 0.15 |
| AACCAGCAAUAUUACGCUUA | -0.415 ± 0.046 | -0.0597 ± 0.055 |
| AACCAGCAAUAUUACGGAGC | -2.17 ± 0.12 | -1.49 ± 0.13 |
| AACCAGCAAUAUUACGGAUC | -2.84 ± 0.11 | -1.48 ± 0.1 |
| AACCAGCAAUAUUACGGCAA | -0.217 ± 0.07 | -0.0314 ± 0.082 |
| AACCAGCAAUAUUACGGCCG | 0.0592 ± 0.073 | -0.223 ± 0.1 |
| AACCAGCAAUAUUACGGGAU | -2.59 ± 0.097 | -1.6 ± 0.098 |
| AACCAGCAAUAUUACGGUGG | -2.33 ± 0.086 | -1.44 ± 0.1 |
| AACCAGCAAUAUUACGUACU | 0.015 ± 0.053 | 0.248 ± 0.066 |
| AACCAGCAAUAUUACGUAGA | -1.75 ± 0.044 | -0.514 ± 0.058 |
| AACCAGCAAUAUUACGUCAA | -1.38 ± 0.062 | -1.06 ± 0.074 |

| Sequence | self-splicing fitness (ln) (30 °C) | self-splicing fitness (ln) (37 °C) |
| --- | --- | --- |
| AACCAGCAAUAUUACGUCUA | -0.091 ± 0.062 | -0.6 ± 0.067 |
| AACGAGCAAUAUUACGAAAU | -3.74 ± 0.29 | -2.26 ± 0.21 |
| AACGAGCAAUAUUACGACAA | -2.78 ± 0.24 | -0.872 ± 0.18 |
| AACGAGCAAUAUUACGACUC | -1.14 ± 0.064 | -0.414 ± 0.081 |
| AACGAGCAAUAUUACGCAAC | -2.01 ± 0.21 | -1.94 ± 0.44 |
| AACGAGCAAUAUUACGCAAG | -3.43 ± 0.19 | -2.19 ± 0.19 |
| AACGAGCAAUAUUACGCACC | -2.32 ± 0.42 | -1.65 ± 0.35 |
| AACGAGCAAUAUUACGCCGC | -2.6 ± 0.24 | -3.58 ± 0.39 |
| AACGAGCAAUAUUACGCCGU | -3.6 ± 0.18 | -1.88 ± 0.16 |
| AACGAGCAAUAUUACGCGAA | -4 ± 0.29 | -2.96 ± 0.28 |
| AACGAGCAAUAUUACGCGAC | -2.91 ± 0.21 | -2.03 ± 0.27 |
| AACGAGCAAUAUUACGCUAA | -3.19 ± 0.35 | -2.33 ± 0.16 |
| AACGAGCAAUAUUACGCUAU | -3.9 ± 0.24 | -2.18 ± 0.23 |
| AACGAGCAAUAUUACGGAAG | -2.67 ± 0.16 | -2.45 ± 0.28 |
| AACGAGCAAUAUUACGGAGC | -3.72 ± 0.19 | -2.05 ± 0.15 |
| AACGAGCAAUAUUACGGCAC | -2.99 ± 0.22 | -1.89 ± 0.29 |
| AACGAGCAAUAUUACGGGGA | -2.72 ± 0.21 | -3.6 ± 0.34 |
| AACGAGCAAUAUUACGGGUU | -2.17 ± 0.18 | -2.05 ± 0.22 |
| AACGAGCAAUAUUACGGUGA | -3.07 ± 0.33 | -1.99 ± 0.31 |
| AACGAGCAAUAUUACGUAAU | -3.78 ± 0.15 | -1.75 ± 0.12 |
| AACGAGCAAUAUUACGUAGU | -3.97 ± 0.15 | -2.24 ± 0.15 |
| AACGAGCAAUAUUACGUAUA | -2.83 ± 0.19 | -2.34 ± 0.27 |
| AACGAGCAAUAUUACGUCGC | -2.69 ± 0.36 | 1.3 ± 0.3 |
| AACGAGCAAUAUUACGUCUU | -1.33 ± 0.074 | -0.279 ± 0.093 |

| Sequence | self-splicing fitness (ln) (30 °C) | self-splicing fitness (ln) (37 °C) |
| --- | --- | --- |
| AACGAGCAAUAUUACGUGCG | -2.23 ± 0.11 | -1.92 ± 0.15 |
| AACUAGCAAUAUUACGAAAC | -3.3 ± 0.21 | -2.94 ± 0.3 |
| AACUAGCAAUAUUACGAACA | -1.12 ± 0.07 | -0.611 ± 0.081 |
| AACUAGCAAUAUUACGAAGG | -3.46 ± 0.2 | -2.74 ± 0.26 |
| AACUAGCAAUAUUACGACCU | -0.168 ± 0.083 | 0.541 ± 0.11 |
| AACUAGCAAUAUUACGACGA | -0.137 ± 0.066 | -0.576 ± 0.074 |
| AACUAGCAAUAUUACGAGGC | -3.35 ± 0.2 | -2.62 ± 0.35 |
| AACUAGCAAUAUUACGAUAU | -1.26 ± 0.077 | -0.429 ± 0.11 |
| AACUAGCAAUAUUACGCAGG | -2.99 ± 0.15 | -1.66 ± 0.14 |
| AACUAGCAAUAUUACGCAUU | -2.19 ± 0.077 | -1.09 ± 0.073 |
| AACUAGCAAUAUUACGCGGA | -2.25 ± 0.1 | -1.18 ± 0.086 |
| AACUAGCAAUAUUACGGCCA | -0.0639 ± 0.1 | -0.69 ± 0.1 |
| AACUAGCAAUAUUACGGCGG | -1.21 ± 0.087 | -0.787 ± 0.11 |
| AACUAGCAAUAUUACGGCGU | -0.717 ± 0.072 | 0.0758 ± 0.085 |
| AACUAGCAAUAUUACGGUAA | -1.49 ± 0.094 | -0.267 ± 0.095 |
| AACUAGCAAUAUUACGGUCA | -0.313 ± 0.074 | 0.442 ± 0.093 |
| AACUAGCAAUAUUACGGUGC | -2.46 ± 0.16 | -1.77 ± 0.15 |
| AACUAGCAAUAUUACGUCAU | -2.91 ± 0.13 | -1.21 ± 0.12 |
| AACUAGCAAUAUUACGUCCA | -0.578 ± 0.094 | -0.0353 ± 0.11 |
| AACUAGCAAUAUUACGUCGU | -1.8 ± 0.055 | -1.03 ± 0.067 |
| AACUAGCAAUAUUACGUGGC | -3.72 ± 0.25 | -1.92 ± 0.17 |
| AACUAGCAAUAUUACGUUAA | -2.93 ± 0.24 | -1.71 ± 0.23 |
